Source: patent US20220389119A1

Target: WT Fc chain lacking a warhead
Experiment: co-expression in HEK 293 EBNA1, protein A purification, non-reduced micro-capillary gel electrophoresis; 50 kDa = Fc homodimer lacking warheads

- NR-mCE 50 kDa (%): 21.4%
Substance: WT Fc chain lacking a warhead
